Experimental findings from patent US20250276075A1, “METHODS OF TREATING AXL-EXPRESSING CANCERS WITH ANTI-AXL ANTIBODIES, ANTIBODY FRAGMENTS AND THEIR IMMUNOCONJUGATES” (BIOATLA, INC., priority 2020, published 2025) are described below.

Where a chain is given by its changes, count along the chain named. Names and notes keep the numbering of the source.

The labels stand for the following.
T1: Axl (Homo sapiens, UniProt P30530)
T1 sequence (P30530 26-451 limits assumed): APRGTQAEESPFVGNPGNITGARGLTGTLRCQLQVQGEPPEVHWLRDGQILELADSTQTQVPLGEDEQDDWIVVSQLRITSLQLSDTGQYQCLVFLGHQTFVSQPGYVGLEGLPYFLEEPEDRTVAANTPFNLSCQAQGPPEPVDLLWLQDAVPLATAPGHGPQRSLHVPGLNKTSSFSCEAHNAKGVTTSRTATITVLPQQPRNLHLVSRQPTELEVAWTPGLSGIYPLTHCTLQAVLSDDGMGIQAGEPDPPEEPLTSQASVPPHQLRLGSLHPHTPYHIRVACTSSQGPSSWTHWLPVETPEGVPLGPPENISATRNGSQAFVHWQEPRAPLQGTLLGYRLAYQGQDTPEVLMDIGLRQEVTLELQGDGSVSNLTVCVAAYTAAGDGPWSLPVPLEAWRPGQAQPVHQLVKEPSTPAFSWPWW

B1: LC-A032L (antibody, V domains shown)
VH: EVQLVQSGAEVKKPGATVKISCKVSGYSFTGHTMNWIRQPPGKGLEWIGLIKPSNGGTSYNQKFKGRVTISADKSISTAYLQWSSLKASDTAMYYCAHGHYESYFAMDYWGQGTLVTVSS
VL: DIQMTQSPSSLSASVGDRVTITCKASQDVSSLVAWYQQKPGQAPRLLIYWASTRHTGVPSRFSGSGSGTEFTLTISSLQPDDFATYYCQEHFSTPLTFGQGTKVEIK
B2: LC-A034N (antibody, V domains shown)
VH: B1 VH
VL: B1 VL with L32A, A34N
B3: LC-A051I (antibody, V domains shown)
VH: B1 VH
VL: B1 VL with L32A, A51I
B4: LC-W050F (antibody, V domains shown)
VH: B1 VH
VL: B1 VL with L32A, W50F
B5: LC-A051N (antibody, V domains shown)
VH: B1 VH
VL: B1 VL with L32A, A51N
B6: LC-F092E (antibody, V domains shown)
VH: B1 VH
VL: B1 VL with L32A, F92E
B7: LC-F092D (antibody, V domains shown)
VH: B1 VH
VL: B1 VL with L32A, F92D
B8: LC-A034D (antibody, V domains shown)
VH: B1 VH
VL: B1 VL with L32A, A34D
B9: LC-P095A (antibody, V domains shown)
VH: B1 VH
VL: B1 VL with L32A, P95A
B10: LC-A034Q (antibody, V domains shown)
VH: B1 VH
VL: B1 VL with L32A, A34Q
B11: LC-A032M (antibody, V domains shown)
VH: B1 VH
VL: B1 VL with L32M
B12: LC-F092G (antibody, V domains shown)
VH: B1 VH
VL: B1 VL with L32A, F92G
B13: LC-F092C (antibody, V domains shown)
VH: B1 VH
VL: B1 VL with L32A, F92C
B14: LC-F092S (antibody, V domains shown)
VH: B1 VH
VL: B1 VL with L32A, F92S
B15: LC-T094C (antibody, V domains shown)
VH: B1 VH
VL: B1 VL with L32A, T94C
B16: LC-A051P (antibody, V domains shown)
VH: B1 VH
VL: B1 VL with L32A, A51P
B17: LC-F092N (antibody, V domains shown)
VH: B1 VH
VL: B1 VL with L32A, F92N

The target in the first assay is Axl (UniProt P30530). Briefly: ELISA, 1:9 dilution.
Settings: not given
(In general: An ELISA detects its analyte on a solid surface through an enzyme-linked reagent.)
As for B1, the Affinity ELISA CPE mutant ratio (1:9, pH 6.0/7.4) is 2.27.
Turning to B2, the Affinity ELISA CPE mutant ratio (1:9, pH 6.0/7.4) is 2.4.
Still for that read-out and setting: in the case of B3 it was 2.14; in that of B4, 3.5; in that of B5, 2.2.
Regarding B6, the Affinity ELISA CPE mutant ratio (1:9, pH 6.0/7.4) amounted to 2.
On the same count and under the same terms, next, B7: 2.94; B8: 2.6; B9: 2.99.
As for B10, the Affinity ELISA CPE mutant ratio (1:9, pH 6.0/7.4) worked out at 1.41.
On the same count and under the same terms, next, B11: 2.92.
Consider B12, for which the Affinity ELISA CPE mutant ratio (1:9, pH 6.0/7.4) came to 4.76.
With B13, the Affinity ELISA CPE mutant ratio (1:9, pH 6.0/7.4) came out at 4.58.
With B14, the Affinity ELISA CPE mutant ratio (1:9, pH 6.0/7.4) was determined as 2.94.
Turning to B15, the Affinity ELISA CPE mutant ratio (1:9, pH 6.0/7.4) is 1.77.
Same read-out and setting: in the case of B16 it was 1.57; in that of B17, 2.

The next assay has as its target Axl (UniProt P30530). Briefly: ELISA, 1:3 dilution.
Settings: not given
As for B1, the Affinity ELISA CPE mutant ratio (1:3, pH 6.0/7.4) is 1.98.
Regarding B2, the Affinity ELISA CPE mutant ratio (1:3, pH 6.0/7.4) came to 2.63.
Consider B3, for which the Affinity ELISA CPE mutant ratio (1:3, pH 6.0/7.4) was 2.24.
As to B4, the Affinity ELISA CPE mutant ratio (1:3, pH 6.0/7.4) stood at 2.25.
Turning to B5, the Affinity ELISA CPE mutant ratio (1:3, pH 6.0/7.4) came to 1.41.
Turning to B6, the Affinity ELISA CPE mutant ratio (1:3, pH 6.0/7.4) was 1.76.
Consider B7, for which the Affinity ELISA CPE mutant ratio (1:3, pH 6.0/7.4) worked out at 2.97.
Same read-out and setting: in the case of B8 it was 3; in that of B9, 2.52; in that of B10, 2.
B11: the Affinity ELISA CPE mutant ratio (1:3, pH 6.0/7.4) came out at 4.76.
On the same count and under the same terms, in the case of B12 it was 3.69.
Consider B13, for which the Affinity ELISA CPE mutant ratio (1:3, pH 6.0/7.4) turned out to be 3.86.
Still for that read-out and setting: in the case of B14 it was 3.18; in that of B15, 1.42.
For the molecule B16, the Affinity ELISA CPE mutant ratio (1:3, pH 6.0/7.4) is 1.92.
Take B17: the Affinity ELISA CPE mutant ratio (1:3, pH 6.0/7.4) came out at 1.93.

A further assay deals with T1, Axl. Briefly: Affinity ELISA of CPE mutant antibodies for binding to Axl at pH 6.0 over pH 7.4. To be noted: light chain variable region mutants; 1:3 dilution. The text has this: The DNA encoding the wild-type antibody was evolved to generate a mutant antibody library using Comprehensive Positional Evolution (CPE), which each position in the template antibody is randomized one at a time. Each mutant antibody in the library has only one single point mutation. The mutant antibodies in the library were generated by simultaneously screening for selective binding affinity to Axl at pH 6.0 over pH 7.4 by ELISA. Two mutant antibody dilutions were used: 1:3 and 1:9 dilutions. The mutant antibodies that have at least 1.5 ratio of binding affinity at pH 6.0 to at pH 7.4 under either 1:3 or 1:9 dilution are selected as conditionally active antibodies, with the single point mutations indicated in each of the heavy chain and light chain variable region (Tables 1 and 2).
A wild-type antibody to Axl was selected as the template antibody (with a heavy chain variable region of 063-hum10F10-HC in FIG. 1A and a light chain variable region of […]). The DNA encoding the wild-type antibody was evolved to generate a mutant antibody library using Comprehensive Positional Evolution (CPE), a method by which each position in the template antibody is randomized one at a time. Each mutant antibody in the library has only one single point mutation. The mutant antibodies in the library were generated by simultaneously screening for selective binding affinity to Axl at pH 6.0 over pH 7.4 as determined by ELISA.
Simultaneously, the expression level of the mutant antibodies was also optimized for the purpose of higher fields in a manufacturing process. The screening was done in serum using a FLAG tag because there were human antibodies in the serum which might cause false positives for the screening. The screening buffer was a carbonate buffer (Krebs buffer with ringer-standard buffer but different from PBS). […] Some of the selected mutant antibodies (scFv) were represented in FIG. 2 with their higher activity at pH 6.0 than at pH 7.4, while their activity ratios between pH 6.0 to pH 7.4 were at least 11 fold (FIG. 3).
Turning to B1, the “Affinity ELISA CPE mutant ratio (1:3, pH 6.0/7.4)” value worked out at 1.982.
As to B2, the “Affinity ELISA CPE mutant ratio (1:3, pH 6.0/7.4)” value amounted to 2.626.
B3: the “Affinity ELISA CPE mutant ratio (1:3, pH 6.0/7.4)” value was determined as 2.241.
With B4, the “Affinity ELISA CPE mutant ratio (1:3, pH 6.0/7.4)” value was found to be 2.245.
On to B5, for which the “Affinity ELISA CPE mutant ratio (1:3, pH 6.0/7.4)” value amounted to 1.412.
For the molecule B6, the “Affinity ELISA CPE mutant ratio (1:3, pH 6.0/7.4)” value is reported as 1.759.
Consider B7, for which the “Affinity ELISA CPE mutant ratio (1:3, pH 6.0/7.4)” value is 2.969.
With B8, the “Affinity ELISA CPE mutant ratio (1:3, pH 6.0/7.4)” value amounted to 3.005.
For B9, the “Affinity ELISA CPE mutant ratio (1:3, pH 6.0/7.4)” value is 2.523.
Take B10: the “Affinity ELISA CPE mutant ratio (1:3, pH 6.0/7.4)” value turned out to be 1.999.
In the case of B11, the “Affinity ELISA CPE mutant ratio (1:3, pH 6.0/7.4)” value worked out at 4.757.
With B12, the “Affinity ELISA CPE mutant ratio (1:3, pH 6.0/7.4)” value is listed as 3.692.
Still for that read-out and setting: next, B13: 3.862; B14: 3.179.
Take B15: the “Affinity ELISA CPE mutant ratio (1:3, pH 6.0/7.4)” value is on record as 1.423.
As to B16, the “Affinity ELISA CPE mutant ratio (1:3, pH 6.0/7.4)” value is recorded as 1.920.
Consider B17, for which the “Affinity ELISA CPE mutant ratio (1:3, pH 6.0/7.4)” value worked out at 1.933.

The same assay, now with this note: light chain variable region mutants; 1:9 dilution.
With B1, the “Affinity ELISA CPE mutant ratio (1:9, pH 6.0/7.4)” value was determined as 2.272.
In the case of B2, the “Affinity ELISA CPE mutant ratio (1:9, pH 6.0/7.4)” value was 2.403.
In the case of B3, the “Affinity ELISA CPE mutant ratio (1:9, pH 6.0/7.4)” value amounted to 2.139.
As for B4, the “Affinity ELISA CPE mutant ratio (1:9, pH 6.0/7.4)” value is given as 3.504.
Still for that read-out and setting: next, B5: 2.200.
Still for that read-out and setting: next, B6: 1.999.
Take B7: the “Affinity ELISA CPE mutant ratio (1:9, pH 6.0/7.4)” value came out at 2.940.
As to B8, the “Affinity ELISA CPE mutant ratio (1:9, pH 6.0/7.4)” value was 2.599.
As to B9, the “Affinity ELISA CPE mutant ratio (1:9, pH 6.0/7.4)” value is given as 2.987.
Consider B10, for which the “Affinity ELISA CPE mutant ratio (1:9, pH 6.0/7.4)” value is 1.409.
For the molecule B11, the “Affinity ELISA CPE mutant ratio (1:9, pH 6.0/7.4)” value is recorded as 2.920.
Consider B12, for which the “Affinity ELISA CPE mutant ratio (1:9, pH 6.0/7.4)” value is listed as 4.758.
As for B13, the “Affinity ELISA CPE mutant ratio (1:9, pH 6.0/7.4)” value worked out at 4.576.
As for B14, the “Affinity ELISA CPE mutant ratio (1:9, pH 6.0/7.4)” value is 2.937.
In the case of B15, the “Affinity ELISA CPE mutant ratio (1:9, pH 6.0/7.4)” value is given as 1.768.
Same read-out and setting: next, B16: 1.569.
As to B17, the “Affinity ELISA CPE mutant ratio (1:9, pH 6.0/7.4)” value is reported as 2.004.
